According to patent US20110098227:

Tested on: NusA-Notch fusion protein (NusA fused to mouse Notch-1 N1703-D1860 with C-terminal Flag and 8His tags), uncleaved

solubilized gamma-secretase from HeLa cells
apparent Km for hydrolysis (Notch cleavage ELISA): about 0.7 µM | specific cleavage at the 1743-1744 junction: γ-secretase activity from HeLa cells specifically cleaves the Notch protein at the 1743-1744 junction
